Experimental data reported in PMC5689005.

Assays:
[1] = target: hLysRSΔN65 (human lysyl-tRNA synthetase, N-terminally truncated) (human, UniProt Q15046 66-597, del1-65); test: fluorescence anisotropy
[2] = target: hLysRS (full-length human lysyl-tRNA synthetase) (human, UniProt Q15046 1-597); test: fluorescence anisotropy
Chain of hLysRS (full-length human lysyl-tRNA synthetase) (Q15046 whole entry): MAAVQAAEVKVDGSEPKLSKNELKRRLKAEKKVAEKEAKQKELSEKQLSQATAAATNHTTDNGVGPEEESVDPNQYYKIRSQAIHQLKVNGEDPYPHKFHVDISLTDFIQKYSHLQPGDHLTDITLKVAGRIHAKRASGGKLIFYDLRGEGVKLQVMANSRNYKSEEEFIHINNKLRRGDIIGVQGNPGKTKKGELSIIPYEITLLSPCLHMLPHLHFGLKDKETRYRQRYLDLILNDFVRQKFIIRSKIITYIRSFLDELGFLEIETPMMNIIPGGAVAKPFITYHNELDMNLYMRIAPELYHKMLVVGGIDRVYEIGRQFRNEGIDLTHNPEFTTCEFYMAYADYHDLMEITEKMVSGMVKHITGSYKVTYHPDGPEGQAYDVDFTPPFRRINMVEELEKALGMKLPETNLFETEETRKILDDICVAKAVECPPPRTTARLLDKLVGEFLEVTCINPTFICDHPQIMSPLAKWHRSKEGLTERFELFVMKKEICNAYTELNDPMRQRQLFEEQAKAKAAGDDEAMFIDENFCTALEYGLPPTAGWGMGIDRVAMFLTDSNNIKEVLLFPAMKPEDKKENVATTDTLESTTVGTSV

Chain of hLysRSΔN65 (human lysyl-tRNA synthetase, N-terminally truncated) (Q15046 66-597, stated change not applied): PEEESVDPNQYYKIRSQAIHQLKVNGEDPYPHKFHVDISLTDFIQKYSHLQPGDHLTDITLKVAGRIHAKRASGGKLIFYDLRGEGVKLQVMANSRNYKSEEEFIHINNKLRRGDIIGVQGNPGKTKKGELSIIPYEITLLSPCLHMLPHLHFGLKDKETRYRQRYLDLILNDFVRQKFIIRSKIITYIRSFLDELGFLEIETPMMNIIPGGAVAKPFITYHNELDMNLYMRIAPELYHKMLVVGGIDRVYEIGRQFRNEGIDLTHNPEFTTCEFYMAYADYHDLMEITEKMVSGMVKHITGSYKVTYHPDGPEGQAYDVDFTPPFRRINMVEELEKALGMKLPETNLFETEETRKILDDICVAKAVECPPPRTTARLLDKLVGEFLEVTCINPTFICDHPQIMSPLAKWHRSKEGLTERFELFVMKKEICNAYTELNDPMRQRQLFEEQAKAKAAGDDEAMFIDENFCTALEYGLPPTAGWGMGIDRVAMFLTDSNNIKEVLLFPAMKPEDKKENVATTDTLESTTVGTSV

Binder | binding result [1] | binding result [2]
GGGCUUUAAAGUGAAAGCCC (structured_RNA) [HP2] | no binding | –
GGCGACGGUGUAAAAAUCUCGCC (structured_RNA) [HP1 (A-rich stem-loop)] | no binding | no binding
